Laboratory results reported in patent US20220089784A1 (University of California, published 2022).
Substitutions are numbered along the chain they refer to.

How the values were obtained:
Assay in all cases: yeast scFv FACS
BoNT/B1 = target: T1, BoNT/B1 (Clostridium botulinum, UniProt P10844 2-1291)
T1 sequence: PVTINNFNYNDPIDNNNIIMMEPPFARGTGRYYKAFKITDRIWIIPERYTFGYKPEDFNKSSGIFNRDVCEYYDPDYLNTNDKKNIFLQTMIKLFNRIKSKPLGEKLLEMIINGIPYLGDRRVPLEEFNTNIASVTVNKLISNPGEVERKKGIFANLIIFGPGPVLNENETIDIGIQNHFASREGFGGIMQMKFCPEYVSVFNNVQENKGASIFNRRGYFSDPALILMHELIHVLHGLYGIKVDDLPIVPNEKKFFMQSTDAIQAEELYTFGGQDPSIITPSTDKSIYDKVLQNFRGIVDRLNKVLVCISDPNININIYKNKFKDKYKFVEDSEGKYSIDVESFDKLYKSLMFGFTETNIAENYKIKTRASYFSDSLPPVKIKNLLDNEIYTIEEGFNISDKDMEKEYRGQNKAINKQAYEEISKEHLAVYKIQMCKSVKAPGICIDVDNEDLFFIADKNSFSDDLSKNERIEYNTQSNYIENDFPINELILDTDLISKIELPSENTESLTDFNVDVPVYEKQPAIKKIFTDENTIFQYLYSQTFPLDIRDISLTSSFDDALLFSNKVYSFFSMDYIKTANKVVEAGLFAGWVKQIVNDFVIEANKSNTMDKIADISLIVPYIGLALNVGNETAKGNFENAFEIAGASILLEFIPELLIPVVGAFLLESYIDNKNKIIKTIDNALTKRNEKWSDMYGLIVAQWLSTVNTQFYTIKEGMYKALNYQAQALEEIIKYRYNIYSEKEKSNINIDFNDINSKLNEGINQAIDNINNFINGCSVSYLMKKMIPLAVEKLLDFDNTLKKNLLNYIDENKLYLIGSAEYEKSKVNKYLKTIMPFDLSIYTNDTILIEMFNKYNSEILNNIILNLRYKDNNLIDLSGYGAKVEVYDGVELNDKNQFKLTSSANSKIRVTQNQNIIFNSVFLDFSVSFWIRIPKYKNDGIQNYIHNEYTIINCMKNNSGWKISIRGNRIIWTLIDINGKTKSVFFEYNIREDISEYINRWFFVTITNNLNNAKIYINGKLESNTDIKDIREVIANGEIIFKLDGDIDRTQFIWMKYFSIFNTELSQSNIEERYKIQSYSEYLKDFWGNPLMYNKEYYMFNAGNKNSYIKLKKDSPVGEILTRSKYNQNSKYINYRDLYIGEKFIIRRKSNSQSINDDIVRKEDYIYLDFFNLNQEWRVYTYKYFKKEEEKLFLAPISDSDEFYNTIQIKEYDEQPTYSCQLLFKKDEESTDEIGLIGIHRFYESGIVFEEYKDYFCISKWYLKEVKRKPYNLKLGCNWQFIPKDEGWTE

[1] = target: T2, BoNT/B light chain (recombinant) (Clostridium botulinum, UniProt P10844 1-441)
T2 sequence: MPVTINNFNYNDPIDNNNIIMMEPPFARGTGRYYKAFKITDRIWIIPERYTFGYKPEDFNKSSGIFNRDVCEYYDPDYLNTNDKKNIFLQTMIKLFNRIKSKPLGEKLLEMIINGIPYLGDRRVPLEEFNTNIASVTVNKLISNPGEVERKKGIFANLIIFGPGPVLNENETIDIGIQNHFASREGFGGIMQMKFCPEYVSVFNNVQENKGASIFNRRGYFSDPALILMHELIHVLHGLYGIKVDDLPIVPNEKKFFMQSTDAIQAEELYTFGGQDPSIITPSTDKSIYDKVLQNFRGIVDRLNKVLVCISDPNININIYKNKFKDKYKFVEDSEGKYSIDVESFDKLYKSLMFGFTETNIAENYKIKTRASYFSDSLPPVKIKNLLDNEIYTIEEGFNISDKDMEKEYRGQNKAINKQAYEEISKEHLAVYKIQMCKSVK

[2] = target: T3, BoNT/F1 (proteolytic BoNT/F) (Clostridium botulinum, UniProt A7GBG3 1-1278)
T3 sequence: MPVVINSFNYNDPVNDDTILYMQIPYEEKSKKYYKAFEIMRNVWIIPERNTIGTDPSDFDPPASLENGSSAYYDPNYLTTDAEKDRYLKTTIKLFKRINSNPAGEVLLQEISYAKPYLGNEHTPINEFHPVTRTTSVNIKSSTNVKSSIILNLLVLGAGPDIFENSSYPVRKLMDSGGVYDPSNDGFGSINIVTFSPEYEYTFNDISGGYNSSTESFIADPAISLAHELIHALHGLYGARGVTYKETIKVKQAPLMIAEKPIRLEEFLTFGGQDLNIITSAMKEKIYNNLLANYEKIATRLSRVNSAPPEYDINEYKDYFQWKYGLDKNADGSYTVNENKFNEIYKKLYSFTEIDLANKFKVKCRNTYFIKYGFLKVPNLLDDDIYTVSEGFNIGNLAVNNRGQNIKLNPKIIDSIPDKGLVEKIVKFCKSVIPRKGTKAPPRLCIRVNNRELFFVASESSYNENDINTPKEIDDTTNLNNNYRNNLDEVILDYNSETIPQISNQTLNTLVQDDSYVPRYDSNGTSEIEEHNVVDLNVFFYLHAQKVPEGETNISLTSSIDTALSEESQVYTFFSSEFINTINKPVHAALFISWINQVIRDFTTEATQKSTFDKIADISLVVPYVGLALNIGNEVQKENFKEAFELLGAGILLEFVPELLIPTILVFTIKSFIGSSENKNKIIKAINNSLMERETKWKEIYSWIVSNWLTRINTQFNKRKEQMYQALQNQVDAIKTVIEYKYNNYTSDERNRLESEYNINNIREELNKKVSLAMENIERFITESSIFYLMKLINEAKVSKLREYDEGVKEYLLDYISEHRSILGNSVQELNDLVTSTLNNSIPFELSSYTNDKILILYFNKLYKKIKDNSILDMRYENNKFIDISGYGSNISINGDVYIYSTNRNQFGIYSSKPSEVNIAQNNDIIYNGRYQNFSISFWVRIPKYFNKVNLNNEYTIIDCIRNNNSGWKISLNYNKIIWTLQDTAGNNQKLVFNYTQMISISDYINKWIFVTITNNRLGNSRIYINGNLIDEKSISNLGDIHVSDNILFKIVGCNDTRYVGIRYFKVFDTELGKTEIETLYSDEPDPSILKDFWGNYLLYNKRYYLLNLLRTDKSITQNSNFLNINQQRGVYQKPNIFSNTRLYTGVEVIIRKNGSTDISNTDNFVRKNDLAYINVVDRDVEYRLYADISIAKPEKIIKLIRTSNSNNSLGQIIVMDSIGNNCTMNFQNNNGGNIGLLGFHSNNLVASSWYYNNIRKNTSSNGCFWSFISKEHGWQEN

BoNT/F 202F = target: T4, BoNT/F 202F (Clostridium botulinum, UniProt P30996 1-1274)
T4 sequence: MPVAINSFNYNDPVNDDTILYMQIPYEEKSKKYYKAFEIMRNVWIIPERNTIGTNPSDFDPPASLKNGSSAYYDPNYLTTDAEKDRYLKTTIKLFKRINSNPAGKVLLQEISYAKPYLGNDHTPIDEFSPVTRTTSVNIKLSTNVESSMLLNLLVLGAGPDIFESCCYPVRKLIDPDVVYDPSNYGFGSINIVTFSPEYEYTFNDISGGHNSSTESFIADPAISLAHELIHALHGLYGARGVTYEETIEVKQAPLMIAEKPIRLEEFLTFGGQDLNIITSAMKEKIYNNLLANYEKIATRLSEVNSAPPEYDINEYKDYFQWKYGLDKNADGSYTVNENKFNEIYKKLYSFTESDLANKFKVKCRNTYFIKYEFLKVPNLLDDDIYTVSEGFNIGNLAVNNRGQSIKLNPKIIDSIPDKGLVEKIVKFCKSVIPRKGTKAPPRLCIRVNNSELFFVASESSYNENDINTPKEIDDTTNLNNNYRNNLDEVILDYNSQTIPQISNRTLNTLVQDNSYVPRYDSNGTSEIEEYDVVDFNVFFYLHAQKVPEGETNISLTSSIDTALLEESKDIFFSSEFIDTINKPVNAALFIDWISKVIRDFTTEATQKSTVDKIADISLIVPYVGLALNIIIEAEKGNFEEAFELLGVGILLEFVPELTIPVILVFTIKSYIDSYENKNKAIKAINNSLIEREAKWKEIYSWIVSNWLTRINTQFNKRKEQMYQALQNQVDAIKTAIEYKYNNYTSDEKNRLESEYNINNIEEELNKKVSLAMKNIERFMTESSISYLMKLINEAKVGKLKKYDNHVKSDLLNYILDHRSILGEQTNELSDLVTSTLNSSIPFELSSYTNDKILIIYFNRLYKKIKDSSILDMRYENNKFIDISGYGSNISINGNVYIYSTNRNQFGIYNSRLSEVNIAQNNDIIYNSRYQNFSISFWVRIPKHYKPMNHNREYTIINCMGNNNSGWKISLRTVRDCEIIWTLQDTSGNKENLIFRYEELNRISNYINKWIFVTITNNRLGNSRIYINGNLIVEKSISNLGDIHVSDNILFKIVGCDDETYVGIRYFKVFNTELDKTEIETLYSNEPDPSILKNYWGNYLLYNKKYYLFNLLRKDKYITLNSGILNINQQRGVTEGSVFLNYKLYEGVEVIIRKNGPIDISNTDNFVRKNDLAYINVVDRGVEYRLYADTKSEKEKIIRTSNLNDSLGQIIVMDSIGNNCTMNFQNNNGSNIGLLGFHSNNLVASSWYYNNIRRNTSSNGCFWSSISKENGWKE

B1: 19D2 scFv (scFv)
scFv: EVQLQQSGGELARPGSSVKLSCKASGYSFTGYSLTWVKQTPGQGLEWIGEIYPRSGNTYYNENFQGKATLTADESSSTAYMELRSLTSEDSAVYFCARDFYDYDGGGRGYWGQGTTLTVSSVDLKSGGSTSGSGKPGSGEGSSGSARDIVMTQTPAIMSASPGEKVTITCSASSSVSYMHWYQQKPGTSPKLWIYSTSNLASGVPARFSGSGSGTSYSLTISRMEAEDAATYYCQQRSSYPYTFGGGTKLEIK
notes: mouse
BoNT/B1
  Kd: 2.95 nM
[1]
  Kd: 5.69 nM

B2: 39H6 scFv (scFv, V domains shown)
VH: EVQLVPSGGNLVQPGGSLRLSCAATGPIGSHWMTWVRQAPGQGLEWVANINLDGTEKFYVDSVKGRFTVSRDNRKSSVFLQMNNLRVDDTAVYYCARLQWGGYNGWLSPWGQGTLVTVSS
VL: DIVMTQSPPSLSASVGDRVSLTCRASEYIGTSLNWYQQKPGKAPKLLIYAASALHSGVPSRFSGSGSGTDFTLTISGLQPEDFATYYCQQANDLPLTFGGGTKLEIK
[2]
  Kd: 0.526 nM
BoNT/F 202F
  binding result: binds

B3: 41F7 scFv (scFv, V domains shown)
VH: B2 VH
VL: B2 VL with V3L
[2]
  Kd: 0.566 nM
BoNT/F 202F
  binding result: binds

B4: 41E2 scFv (scFv, V domains shown)
VH: B2 VH
VL: B2 VL with T5I
[2]
  Kd: 0.584 nM
BoNT/F 202F
  binding result: binds

B5: 43D3 scFv (scFv, V domains shown)
VH: B2 VH with L4Q, P6Q
VL: B2 VL with I106N
[2]
  Kd: 0.333 nM
BoNT/F 202F
  binding result: binds

B6: 39D5.1 scFv (scFv, V domains shown)
VH: B2 VH with P6Q, N49S
VL: B2 VL
[2]
  Kd: 1.77 nM
BoNT/F 202F
  binding result: binds

B7: 39A1 scFv (scFv, V domains shown)
VH: B2 VH with L4Q, P6Q
VL: B2 VL
[2]
  Kd: 0.588 nM
BoNT/F 202F
  binding result: binds

B8: 41C2 scFv (scFv, V domains shown)
VH: B2 VH with L4Q, P6Q
VL: B2 VL with A91T
[2]
  Kd: 0.355 nM
BoNT/F 202F
  binding result: binds

B9: 19D22 scFv (scFv)
scFv: QIQLLQSGAELVRPGTSVKMSCKAAGYPFTSYWMGWVKQRPGHGLEWIGDIYPGGPYTNYNEKFKGKATLTADTSSSTAYMQFSSLTSEDSAIYYCALYGQVGSYAMDYWGQGTSVTVSSVDLKSGGSTSGSGKPGSGEGSSGSARQIVLTQSPAIMSASPGEKVTMTCSASSSVSYMYWYQQKPGSSPRLLIYDTSNLASGVPVRFSGSGSGTSYSLTISRMEAEDAATYYCQQWSSYPPITFGAGTKLEIK
notes: mouse
BoNT/B1
  Kd: 7.39 nM
[1]
  Kd: 21.2 nM

B10: 19A9 scFv (scFv)
scFv: EVQLQQPGSELARPGASVKLSCKASGYTFTSYPITWVKQTTGQGLEWIGEIYPRSGNTYYNEKFKGKATLTADKSSSTAYMELRSLTSEDSAVYFCARDYYDYAGGGRGYWGQGTTLTVSSVDLKSGGSTSGSGKPGSGEGSSGSARDIVLTQSPAIMSASPGGKITITCSASSSVSYMHWFQQKPGTSPKLWIYSTSNLASGVPARFSGSGSGTSYSLTISRMEAEDAATYYCQQRSSYPYTFGGGTKLEIK
notes: mouse
BoNT/B1
  Kd: 1.98 nM
[1]
  Kd: 3.16 nM
